Data published in patent US20140288003A1.

Biological target: Smad3
Test: cell-based or functional assay

“scleraxis (mouse Scx expressed from pECE-HA-FLAG-Scx) (from UniProt Q64124 1-207)” was tested, and the activation of the collagen 1α2 proximal promoter (luciferase assay, NIH 3T3 fibroblasts co-transfected with Scx and Smad3) was 35 % increase.
